Literature values, collected in US20060234299A1, “Protein scaffolds and uses thereof” (Avidia Research Institute, priority 2004, published 2006).

Conditions: commercial drugs

| Substance | Human T½ [h] |
| --- | --- |
| Enbrel | 103 |
| Remicade: TNFa Antibody | 216 |
| Rituxan: CD20 Antibody | 78 |
